The record followed here is US20180371090A1.

Experiment [1] addresses His-tagged human FcγRI (human) (UniProt P12314). The experiment can be described thus: SPR (Biacore T200), His-tagged receptor captured by anti-penta-His, antibody injected, 25 C. A general note: SPR reads the build-up and loss of mass on a sensor chip optically.
The target of experiment [2] is His-tagged cynomolgus FcγRIIA (cynomolgus). The experiment can be described thus: SPR steady-state, His-captured receptor, 25 C.
Experiment [3] addresses His-tagged cynomolgus FcγRIIIA (cynomolgus) (UniProt Q8SPW2). Briefly: SPR steady-state, His-captured receptor, 25 C.
Experiment [4] deals with His-tagged human FcγRIIIA (V176) (human) (UniProt P08637). Briefly: SPR steady-state, His-captured receptor, 25 C.
The target in experiment [5] is His-tagged human FcγRIIIB (human) (UniProt O75015). The experiment can be described thus: SPR steady-state, His-captured receptor, 25 C.
Experiment [6] deals with His-tagged human FcγRIIIA (F176) (human) (UniProt P08637). The experiment can be described thus: SPR steady-state, His-captured receptor, 25 C.
In experiment [7] the target is His-tagged cynomolgus FcγRIIB (cynomolgus). The experiment can be described thus: SPR steady-state, His-captured receptor, 25 C.
For experiment [8], the target named is His-tagged human FcγRIIA (H131) (human) (UniProt P12318). The experiment can be described thus: SPR steady-state, His-captured receptor, 25 C.
Experiment [9] deals with His-tagged human FcγRIIB (human) (UniProt P31994). Briefly: SPR steady-state, His-captured receptor, 25 C.
The target in experiment [10] is His-tagged human FcγRIIA (R131) (human) (UniProt P12318). The experiment can be described thus: SPR steady-state, His-captured receptor, 25 C.
Chain of His-tagged human FcγRIIA (R131) (human) (P12318 36-218 H167R limits assumed): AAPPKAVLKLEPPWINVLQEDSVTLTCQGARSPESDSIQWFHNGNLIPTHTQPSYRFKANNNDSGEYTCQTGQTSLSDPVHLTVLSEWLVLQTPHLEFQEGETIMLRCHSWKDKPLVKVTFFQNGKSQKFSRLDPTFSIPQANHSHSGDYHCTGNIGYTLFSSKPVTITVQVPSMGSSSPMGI

Chain of His-tagged human FcγRI (human) (P12314 16-288 limits assumed): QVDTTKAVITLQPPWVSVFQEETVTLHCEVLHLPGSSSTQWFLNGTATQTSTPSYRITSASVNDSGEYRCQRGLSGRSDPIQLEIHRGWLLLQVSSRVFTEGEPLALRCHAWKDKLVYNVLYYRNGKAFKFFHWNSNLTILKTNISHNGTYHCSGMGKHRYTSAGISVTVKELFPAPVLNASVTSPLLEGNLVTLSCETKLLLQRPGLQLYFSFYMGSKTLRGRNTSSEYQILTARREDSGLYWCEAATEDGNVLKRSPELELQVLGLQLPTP
Chain of His-tagged cynomolgus FcγRIIIA (cynomolgus) (Q8SPW2 17-208 limits assumed): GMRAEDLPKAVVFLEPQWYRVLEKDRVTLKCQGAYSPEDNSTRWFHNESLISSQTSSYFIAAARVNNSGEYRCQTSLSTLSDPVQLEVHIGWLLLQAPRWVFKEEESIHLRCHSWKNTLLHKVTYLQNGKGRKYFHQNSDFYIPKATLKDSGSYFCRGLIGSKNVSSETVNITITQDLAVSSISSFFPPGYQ
Chain of His-tagged human FcγRIIIA (V176) (human) (P08637 17-208 F176V limits assumed): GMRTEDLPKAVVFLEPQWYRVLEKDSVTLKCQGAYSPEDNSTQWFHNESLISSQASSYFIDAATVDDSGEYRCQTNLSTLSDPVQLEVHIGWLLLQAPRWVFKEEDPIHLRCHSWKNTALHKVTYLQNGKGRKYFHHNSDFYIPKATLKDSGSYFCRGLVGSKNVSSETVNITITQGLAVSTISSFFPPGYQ
Chain of His-tagged human FcγRIIA (H131) (human) (P12318 36-218 limits assumed): as the sequence (P12318 36-218 H167R limits assumed) above, with R132H counted along it
Chain of His-tagged human FcγRIIIA (F176) (human) (P08637 17-208 limits assumed): as the sequence (P08637 17-208 F176V limits assumed) above, with V160F counted along it
Chain of His-tagged human FcγRIIB (human) (P31994 46-217 limits assumed): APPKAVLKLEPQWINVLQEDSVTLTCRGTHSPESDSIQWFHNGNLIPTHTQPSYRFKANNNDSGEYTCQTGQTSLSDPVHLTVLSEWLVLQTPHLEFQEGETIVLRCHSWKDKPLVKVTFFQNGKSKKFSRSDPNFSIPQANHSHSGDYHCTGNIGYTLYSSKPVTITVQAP
Chain of His-tagged human FcγRIIIB (human) (O75015 17-200 limits assumed): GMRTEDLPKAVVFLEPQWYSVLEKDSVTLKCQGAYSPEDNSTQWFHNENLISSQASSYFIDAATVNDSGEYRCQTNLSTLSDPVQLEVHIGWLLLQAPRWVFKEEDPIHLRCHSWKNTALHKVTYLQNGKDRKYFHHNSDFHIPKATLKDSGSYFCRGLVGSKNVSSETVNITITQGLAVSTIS

A word on the Kd: it is the equilibrium constant for the complex coming apart. Read a high Kd as weaker binding. For “Wild-type IgG1 Isotype Control (antibody)”, the Kd in experiment [1] is 0.0043 µM; in experiment [2], 4.2 µM; in [3], 0.6 µM; in [4] it was 1.5 µM; in experiment [5], 2.3 µM; in experiment [6], 1.3 µM. The Kd in experiment [7] is 4.2 µM; in [8] it was 1.1 µM. Moreover, the T1/2 in [1] is 15 min.
For orientation: koff means the first-order rate constant of dissociation. Low values mean a long-lived complex, high ones a short-lived complex. Usually kon stands for the second-order rate constant of association. As for “Wild-type IgG4 "CPPC" Isotype Control (antibody)”, the Kd in experiment [1] came out at 0.0139 µM; in experiment [2] it was 19.3 µM; in [3] it was 5.8 µM; in experiment [4], 10 µM; in experiment [9], 9.8 µM; in [10] it was 10 µM. The Kd in experiment [6] worked out at 26 µM; in experiment [7], 9.6 µM; in experiment [8], 12 µM. For the same substance, in [1], the T1/2 was 5 min. In experiment [1], this substance came in with a koff of 0.00236 s⁻¹. The same substance came in with an on-rate (kon) in experiment [1] of 171000 M⁻¹ s⁻¹.
